# Source: US6309872A, “Polypeptides having glucoamylase activity and nucleic acids encoding same” (Novozymes Biotech, Inc, priority 2000, dated 2001)
# B1: Thielavia terrestris ATCC 20627 glucoamylase, wild type, recombinant (expressed in Aspergillus oryzae), SEQ ID NO:2 (Thermothielavioides terrestris NRRL 8126) (protein)
# chain: PEASRVRREGEVVKRSVDSFIATESPIALSNLLCNIGSTGCHASGVASGIVVASPDKTNPDYWYTWTRDSALTFKCVVDTFTNSYDASLQAEIQNYIVAQAHLQGVSNPSGSLSDGSGLGEPKFNVDMSQFTGAWGRPQRDGPALRAIALIAYSKWLISNGYTSTASSIVWPVIKNDLAYVAQYWNNTGFDLWEEVSGSSFFTVANQHRALVEGAALATSLGTSCSACSAVAPQILCFLQSFWSPSSGYILANINENNGRSAKDANTLLGSIHTFDPAAGCDAATFQPCSDRALANHKVVTDAFRSIYSINSGIAEGSAVAVGRYPEDSYFGGNPWYLNTLAAAEQLYDALYVWKKQGSITVTSTSLAFFKDFSSSITPGTYSSSTSTYTTLYNAISAYADGYMNIVAQYAQTNGSLSEQFSKTNGEPLSAYDLTWSYAAFLTAAARRAGVVPPSWGAASANSVPAQCSATSVVGSYTSATATSFPPSQTPASSTSAGSSPASSTTATATACSTPTAVAVTFNERVTTQWGQTIKVVGDAAALGGWDTSKAVPLSAAGYTASDPLWSGTVDLPAGLAVQYKYINVAADGGVTWEADPNHSFTVPAACGTTAVTRDDTWQ
# Substrate: OC[C@H]1O[C@H](O[C@H]2[C@H](O)[C@@H](O)[C@@H](O[C@H]3[C@H](O)[C@@H](O)C(O)O[C@@H]3CO)O[C@@H]2CO)[C@H](O)[C@@H](O)[C@@H]1O
# Experiment: purified protein, by the assay type
# Details: other: maltotriose hydrolysis at pH 4, enzyme 11 μg/ml or 0.18 μM
protein,measurement,value
B1,Km,330 ± 70 µM
same,kcat,(5.5±0.5)×10^3 min^-1
